This assay deals with T1, carcinoembryonic antigen (CEA) (human, UniProt P06731 35-685).
T1 construct: whole, on cells; also called CEACAM5; Carcinoembryonic antigen-related cell adhesion molecule 5
T1 sequence (looked up): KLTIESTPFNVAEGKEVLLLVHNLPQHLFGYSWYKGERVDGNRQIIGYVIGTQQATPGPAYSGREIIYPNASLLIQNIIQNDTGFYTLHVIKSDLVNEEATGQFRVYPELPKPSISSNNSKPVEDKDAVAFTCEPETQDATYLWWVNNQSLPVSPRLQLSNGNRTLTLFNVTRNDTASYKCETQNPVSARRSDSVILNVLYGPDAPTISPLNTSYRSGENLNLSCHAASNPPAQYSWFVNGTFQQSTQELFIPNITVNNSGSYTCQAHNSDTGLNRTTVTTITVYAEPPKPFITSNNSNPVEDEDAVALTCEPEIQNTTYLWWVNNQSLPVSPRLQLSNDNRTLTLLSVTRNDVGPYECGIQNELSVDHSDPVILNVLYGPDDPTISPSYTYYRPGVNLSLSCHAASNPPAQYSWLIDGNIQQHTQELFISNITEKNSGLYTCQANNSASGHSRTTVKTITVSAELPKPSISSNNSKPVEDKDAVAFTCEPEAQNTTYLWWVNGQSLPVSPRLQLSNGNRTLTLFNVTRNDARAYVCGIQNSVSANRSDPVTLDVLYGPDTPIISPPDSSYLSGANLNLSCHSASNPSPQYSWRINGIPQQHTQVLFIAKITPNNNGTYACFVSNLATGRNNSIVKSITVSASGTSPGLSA
Briefly: FACS on MKN-45 cells, detection with anti-huIgG(H+L)-Alexa488. The procedure:
MKN-45 cells were detached from the culture bottle using Trypsin and were counted using a Casy cell counter. After pelleting at 4° C., 300 g the cells were resuspended in FACS Buffer (2.5% FCS in PBS), adjusted to 2.0E+06 cells/mL dispensed to 96-well PP V-bottom-Platte (25 μL/well=5.0E+04Zellen/well).
The CEA specific SPLIT antibodies (P1AF0712 or P1AF0713 respectively) were adjusted to 40 μg/mL in FACS buffer, resulting in a final concentration of 10 μg/mL. Both antibodies were added to the cells either separated followed by buffer or combined and incubated at 4° C. for 1 h. The cells were then washed twice in FACS buffer. After washing, the cells were resuspended in 50 μL FACS-buffer containing secondary antibody (<huIgG(H+L)>-Alexa488, c=10 μg/mL) and incubated 1h at 4° C. The cells were then washed twice in FACS buffer and resuspended in 70 μl/well FACS buffer for measurement using a FACS Canto (BD, Pharmingen).

B1: P1AF0712 (CEA-split-DOTA-VL, CH1A1A) (antibody, human IgG1, kappa, L234A L235A)
heavy 1: not shown
heavy 2: QVQLVQSGAEVKKPGASVKVSCKASGYTFTEFGMNWVRQAPGQGLEWMGWINTKTGEATYVEEFKGRVTFTTDTSTSTAYMELRSLRSDDTAVYYCARWDFAYYVEAMDYWGQGTTVTVSSASTKGPSVFPLAPSSKSTSGGTAALGCLVKDYFPEPVTVSWNSGALTSGVHTFPAVLQSSGLYSLSSVVTVPSSSLGTQTYICNVNHKPSNTKVDKKVEPKSCDKTHTCPPCPAPEAAGGPSVFLFPPKPKDTLMISRTPEVTCVVVDVSHEDPEVKFNWYVDGVEVHNAKTKPREEQYNSTYRVVSVLTVLHQDWLNGKEYKCKVSNKALGAPIEKTISKAKGQPREPQVCTLPPSRDELTKNQVSLSCAVKGFYPSDIAVEWESNGQPENNYKTTPPVLDSDGSFFLVSKLTVDKSRWQQGNVFSCSVMHEALHNHYTQKSLSLSPGGGGGSGGGGSGGGGSGGGGSQAVVIQESALTTPPGETVTLTCGSSTGAVTASNYANWVQEKPDHLFTGLIGGHNNRPPGVPARFSGSLIGDKAALTIAGTQTEDEAIYFCALWYSDHWVIGGGTKLTVL
light: DIQMTQSPSSLSASVGDRVTITCKASAAVGTYVAWYQQKPGKAPKLLIYSASYRKRGVPSRFSGSGSGTDFTLTISSLQPEDFATYYCHQYYTYPLFTFGQGTKLEIKRTVAAPSVFIFPPSDEQLKSGTASVVCLLNNFYPREAKVQWKVDNALQSGNSQESVTEQDSKDSTYSLSSTLTLSKADYEKHKVYACEVTHQGLSSPVTKSFNRGEC
notes: also called CEA specific SPLIT antibody; P6_A
Molecule B1 gave an EC50 of 2.7 µg/mL.

B2: P1AF0713 (CEA-split-DOTA-VH-AST, CH1A1A) (antibody, human IgG1, kappa, L234A L235A)
heavy 1: QVQLVQSGAEVKKPGASVKVSCKASGYTFTEFGMNWVRQAPGQGLEWMGWINTKTGEATYVEEFKGRVTFTTDTSTSTAYMELRSLRSDDTAVYYCARWDFAYYVEAMDYWGQGTTVTVSSASTKGPSVFPLAPSSKSTSGGTAALGCLVKDYFPEPVTVSWNSGALTSGVHTFPAVLQSSGLYSLSSVVTVPSSSLGTQTYICNVNHKPSNTKVDKKVEPKSCDKTHTCPPCPAPEAAGGPSVFLFPPKPKDTLMISRTPEVTCVVVDVSHEDPEVKFNWYVDGVEVHNAKTKPREEQYNSTYRVVSVLTVLHQDWLNGKEYKCKVSNKALGAPIEKTISKAKGQPREPQVCTLPPSRDELTKNQVSLSCAVKGFYPSDIAVEWESNGQPENNYKTTPPVLDSDGSFFLVSKLTVDKSRWQQGNVFSCSVMHEALHNHYTQKSLSLSPG
heavy 2: not shown
light: B1 light
notes: also called CEA specific SPLIT antibody; P6_B
For B2, the half-maximal effective concentration (EC50) stood at 2.3 µg/mL.

These data come from patent US20240173442A1 (Hoffmann-La Roche, published 2024).
